Laboratory results: patent US20130210888

Key:
[1] = system: His-tagged full length (1-482aa) human CoREST
[2] = system: CoREST del 2 (aa 293-482), His-tagged

histidine epitope-tagged LSD1 (HIS-LSD1), full length (1-851aa) human LSD1
demethylation of nucleosomal substrates by LSD1 (Western blot with K4-H3 methylation-specific antibodies) [1]: addition of CoREST to the demethylation reaction restored the ability of recombinant LSD1 to demethylate nucleosomal substrates | stimulation of LSD1 demethylation activity (nucleosomal substrates) [2]: sufficient to mediate stimulation of LSD1 demethylation activity to a level that is comparable to that of the wildtype CoREST
